Test results reported in patent US9567641B2, “Combination therapy for the treatment of cancer using an anti-C-met antibody” (SAMSUNG ELECTRONICS CO., LTD., priority 2013, dated 2017).

What was measured:
[1] = tested on: HT29 colorectal cancer cell line; test: Cell viability, CellTiter Glo, combination with L3-1Y/IgG2 antibody; assay type: cell-based; conditions: L3-1Y/IgG2 antibody alone (negative control siRNA), 0-2 ug/ml, 72 h
Protocol: The efficacy of the combination administration of FGFR3 siRNA and L3-1Y/IgG2 antibody was examined in a colorectal cancer cell line on which the anti-c-Met antibody has no effects. For this, HT29 (ATCC, HTB-38) cells were used. As a control group, All Negative control siRNA (Qiagen, cat. no. 1027281) was used, and as a target siRNA, a mixture of two kinds of siRNAs (see Table 7) that had effects during the screening was used. Transfection was carried out by the same procedures as Example 3.1 and after 24 hours, the cultured cells were treated with L3-1Y/IgG2 antibody at 0 ug/ml, 0.016 ug/ml, 0.08 ug/ml, 0.4 ug/ml, and 2 ug/ml, respectively.
72 hours later after the treatment, 100 uL of CellTiter Glo solution (Promega, G7572) was added to each well, which was allowed to stay at a room temperature for 30 min. The number of cells was counted via luminescence signals, which were recorded using Envision 2104 Multi-label Reader (Perkin Elmer).

[2] = tested on: MKN45 gastric cancer cell line with acquired resistance against L3-1Y/IgG2 antibody; test: Cell viability, CellTiter Glo, resistance-acquired cell line; assay type: cell-based
Protocol: To see whether the treatment RAF1 siRNA can overcome resistance acquired due to the repetitive treatment of an antibody, tests were carried out using MKN45 gastric cancer cell line which had been treated by L3-1Y/IgG2 antibody for 3 months or longer and acquired resistance against it. The resistance-acquired MKN45 gastric cancer cell line was prepared as follows: MKN45 cells (JCRB, JCRB0254) were treated with L3-1Y/IgG2 antibody in amounts being increased over 3 months or longer. The amount of L3-1Y/IgG2 antibody to be treated started from its initial treatment concentration of 1 ug/ml and was increased up to 10 ug/ml until resistance occurred. To confirm the acquisition of L3-1Y/IgG2 antibody resistance, the resistance-acquired clones were treated or not treated with L3-1Y/IgG2 antibody and then incubated, followed by CTG assays.
As a control group, All Negative control siRNA (Qiagen, cat. no. 1027281) was used, and as a target siRNA, a mixture of two kinds of siRNAs (see Table 7) that had effects during the screening was used. […]
(§1) 5000 cells of MKN45 cells which have acquired resistance against L3-1Y/IgG2 antibody were seeded onto a 96-well plate, and 24 hours after, the plate was treated with L3-1Y/IgG2 antibody and an ITGB3 inhibitor, cilengitide (Merck KGaA, EMD 121974). 72 hours later after the treatment, a change in the number of cells was measured using CellTiter Glo assay. The MKN45 cells which have acquired resistance against L3-1Y/IgG2 antibody were prepared referring to Example 4.3. Cilengitide was treated at a fixed concentration of 10 uM, and the L3-1Y/IgG2 antibody was treated by ⅕ dilution each time starting from 2 ug/ml. For comparison, the same test was conducted using L3-1Y/IgG2 antibody alone.
as §1, with “AKT” for “ITGB3”, “MK-2206” for “cilengitide”, “& Co Inc).” for “KGaA, EMD 121974).”, “MK-2206” for “Cilengitide”, “5” for “10”
To verify whether or not the resistance acquired by repetitive administration of anti-c-Met antibody can be overcome by BCL2L1 inhibition, L3-1Y/IgG2 antibody resistance acquired MKN45 cells, where the resistance against L3-1Y/IgG2 antibody is acquired by treating MKN45 gastric cancer cells (JCRB, JCRB0254) with the L3-1Y/IgG2 antibody for at least 3 months, were used. The L3-1Y/IgG2 antibody resistance acquired MKN45 gastric cancer cells were prepared referring to Example 4.3. […]

B1: L3-1Y/IgG2: anti-c-Met antibody: huAbF46-H4-A1 heavy chain variable region, human IgG2 hinge and constant region, kappa light chain with H36Y (antibody)
heavy: EVQLVESGGGLVQPGGSLRLSCAASGFTFTDYYMSWVRQAPGKGLEWLGFIRNKANGYTTEYSASVKGRFTISRDNSKNTLYLQMNSLRAEDTAVYYCARDNWFAYWGQGTLVTVSSASTKGPSVFPLAPCSRSTSESTAALGCLVKDYFPEPVTVSWNSGALTSGVHTFPAVLQSSGLYSLSSVVTVPSSNFGTQTYTCNVDHKPSNTKVDKTVERKCCVECPPCPAPPVAGPSVFLFPPKPKDTLMISRTPEVTCVVVDVSHEDPEVQFNWYVDGVEVHNAKTKPREEQFNSTFRVVSVLTVVHQDWLNGKEYKCKVSNKGLPAPIEKTISKTKGQPREPQVYTLPPSREEMTKNQVSLTCLVKGFYPSDIAVEWESNGQPENNYKTTPPMLDSDGSFFLYSKLTVDKSRWQQGNVFSCSVMHEALHNHYTQKSLSLSPGK
light: DIQMTQSPSSLSASVGDRVTITCKSSQSLLASGNQNNYLAWYQQKPGKAPKMLIIWASTRVSGVPSRFSGSGSGTDFTLTISSLQPEDFATYYCQQSYSRPYTFGQGTKVEIKRTVAAPSVFIFPPSDEQLKSGTASVVCLLNNFYPREAKVQWKVDNALQSGNSQESVTEQDSKDSTYSLSSTLTLSKADYEKHKVYACEVTHQGLSSPVTKSFNRGEC
did not occur: cancer cell growth inhibitory efficacy (cell viability) [1] | growth inhibitory effect (cell viability) ([2]; L3-1Y/IgG2 antibody alone (1/5 dilutions from 2 ug/ml), 72 h) | cancer cell growth inhibitory efficacy (cell viability) ([2]; L3-1Y/IgG2 antibody alone (negative control siRNA))
